Laboratory results: patent US20230083243A1 (VEGA THERAPEUTICS, published 2023)

Columns and labels:
Protein S-C4BP complex = target: T1, Protein S-C4BP complex (human, UniProt P04003 49-597; P20851 18-252); assay: BLI Octet; antibody on anti-human Fc probe
T1 construct: C4BP preparation from Complement Technologies that contains Protein S precomplexed to human C4BP; also called ProS-C4BP Complex; C4BP-Protein S complex
T1 sequence 1: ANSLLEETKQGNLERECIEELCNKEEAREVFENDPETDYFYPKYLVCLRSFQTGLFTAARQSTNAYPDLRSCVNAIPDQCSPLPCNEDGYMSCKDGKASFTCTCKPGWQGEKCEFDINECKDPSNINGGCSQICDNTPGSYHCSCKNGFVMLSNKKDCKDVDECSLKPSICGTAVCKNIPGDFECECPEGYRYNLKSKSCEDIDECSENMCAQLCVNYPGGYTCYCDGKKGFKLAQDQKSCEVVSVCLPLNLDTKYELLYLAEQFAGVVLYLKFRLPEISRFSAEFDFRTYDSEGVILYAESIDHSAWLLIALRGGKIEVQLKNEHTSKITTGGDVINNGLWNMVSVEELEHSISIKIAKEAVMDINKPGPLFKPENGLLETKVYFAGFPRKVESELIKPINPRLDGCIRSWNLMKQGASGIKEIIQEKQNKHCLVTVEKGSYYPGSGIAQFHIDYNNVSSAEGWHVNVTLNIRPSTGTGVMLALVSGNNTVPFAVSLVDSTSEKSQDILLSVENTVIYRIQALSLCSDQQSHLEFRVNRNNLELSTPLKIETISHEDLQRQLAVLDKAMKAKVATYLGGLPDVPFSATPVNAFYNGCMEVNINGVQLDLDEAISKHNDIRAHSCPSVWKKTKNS
T1 sequence 2: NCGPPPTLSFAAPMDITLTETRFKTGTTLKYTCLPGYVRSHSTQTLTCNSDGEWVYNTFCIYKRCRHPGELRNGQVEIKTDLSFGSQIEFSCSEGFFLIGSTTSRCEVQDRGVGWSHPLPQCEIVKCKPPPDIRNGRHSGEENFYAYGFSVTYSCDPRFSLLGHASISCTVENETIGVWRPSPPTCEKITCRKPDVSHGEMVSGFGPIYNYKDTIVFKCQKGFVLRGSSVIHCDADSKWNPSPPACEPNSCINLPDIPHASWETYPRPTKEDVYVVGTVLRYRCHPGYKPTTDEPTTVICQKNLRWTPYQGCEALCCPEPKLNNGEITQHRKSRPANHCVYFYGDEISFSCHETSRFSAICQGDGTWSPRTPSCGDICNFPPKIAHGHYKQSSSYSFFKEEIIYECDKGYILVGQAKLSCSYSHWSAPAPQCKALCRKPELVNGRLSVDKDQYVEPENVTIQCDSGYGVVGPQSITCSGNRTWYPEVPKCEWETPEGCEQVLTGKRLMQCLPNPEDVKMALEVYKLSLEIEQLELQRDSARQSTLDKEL
T1 sequence 3: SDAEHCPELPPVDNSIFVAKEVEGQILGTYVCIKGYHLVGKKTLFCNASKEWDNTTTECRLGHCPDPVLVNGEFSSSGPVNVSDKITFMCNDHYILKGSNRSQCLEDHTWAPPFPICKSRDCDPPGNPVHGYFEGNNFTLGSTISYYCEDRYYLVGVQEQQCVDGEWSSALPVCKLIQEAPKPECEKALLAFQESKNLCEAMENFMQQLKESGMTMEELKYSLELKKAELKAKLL
Experimental: The Octet assay was used to determine the capability of the Protein S antibodies provided herein to bind to Protein S either alone, or when complexed to C4BP.
Using the Octet System (Sartorius), the binding of each antibody to both Protein S and Protein S in complex with C4BP was determined. It had previously been determined that the C4BP preparation from Complement Technologies contains Protein S precomplexed to human C4BP. Therefore, this preparation represented the Protein S-C4BP complex and plasma purified Protein S from Haematologic Technologies was used as the source of free Protein S. The human Fc antibodies were immobilized onto anti-human Fc capture probes by placing the probes into 10 μg/ml antibody solution in 10 mg/ml bovine serum albumin, 20 mM Tris pH 7.0, 150 mM NaCl, and 4 mM calcium chloride. Then the bound antibodies were placed into solutions containing either 75 μg/ml Protein S or 100 μg/ml C4BP (C4BP-Protein S complex).

human Protein S [1] = target: T2, human Protein S (human, UniProt P07225 42-676); assay: BLI Octet; antibody on anti-human Fc probe; Protein S 7.81-500 nM; 4 mM CaCl2
T2 construct: also called ProS; ProS1
T2 sequence: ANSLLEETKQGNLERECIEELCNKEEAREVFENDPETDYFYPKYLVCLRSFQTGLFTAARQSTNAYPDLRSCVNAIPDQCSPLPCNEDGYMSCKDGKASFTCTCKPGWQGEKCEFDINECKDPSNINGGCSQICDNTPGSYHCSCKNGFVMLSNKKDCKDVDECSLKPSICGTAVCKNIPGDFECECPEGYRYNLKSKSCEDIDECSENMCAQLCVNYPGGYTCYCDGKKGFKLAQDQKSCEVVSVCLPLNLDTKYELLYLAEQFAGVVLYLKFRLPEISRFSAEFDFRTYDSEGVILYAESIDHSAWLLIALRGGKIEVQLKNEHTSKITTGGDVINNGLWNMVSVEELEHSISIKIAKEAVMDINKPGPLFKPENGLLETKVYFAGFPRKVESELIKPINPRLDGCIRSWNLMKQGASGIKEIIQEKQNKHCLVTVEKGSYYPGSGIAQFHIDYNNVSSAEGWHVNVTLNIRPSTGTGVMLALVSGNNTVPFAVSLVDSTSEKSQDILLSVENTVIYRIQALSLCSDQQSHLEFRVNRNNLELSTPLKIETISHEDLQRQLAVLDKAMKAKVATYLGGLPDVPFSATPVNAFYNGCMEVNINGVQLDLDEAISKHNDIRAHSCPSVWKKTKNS
Experimental: (§1) Binding characteristics of the Protein S antibodies were also further characterized using Octet. Using the Octet System (Sartorius), the binding of each antibody to both human and cynomolgus monkey (“cyno” in Table 10) Protein S was determined. The human Fc antibodies were immobilized onto anti-human Fc capture probes by placing the probes into 10 μg/ml antibody solution in 10 mg/ml bovine serum albumin, 20 mM Tris pH 7.0, 150 mM NaCl, and 4 mM calcium chloride. […] Next, the probes were placed into buffer and the dissociation rates were measured.

[2] = target: T3, cynomolgus monkey Protein S (cynomolgus monkey); assay: as above
T3 construct: also called cyno Protein S
Experimental: as §1

human Protein S [3] = target: T2, human Protein S; assay: SPR Biacore X100; antibody captured by anti-human IgG (Fc); Protein S 2-128 nM; 5 mM CaCl2; 1:1 fit
Experimental: Binding characteristics of the Protein S antibodies were also determined. Binding interaction analysis was obtained by Surface Plasmon Resonance in a Biacore X100 instrument. The human anti-IgG (Fc) antibody was immobilized to the carboxymethylated dextran membrane on the sensor chip surface (CM5) via the free amine method for a contact time of 420 seconds. Human anti-IgG antibody at 25 μg/mL in 0.15 M NaCl was immobilized to 9,785 RU in 10 mM sodium acetate pH 5.0.
Dilution and running buffer were as follows: Hbs−EP+5 mM CaCl₂. Regeneration was obtained by 3 M MgCl₂. Binding constants (ka, kd, and KD) were determined using the Biacore X100 evaluation software, assuming a 1:1 interaction of Protein S and the tested monoclonal antibody under investigation.

Row | Binder | binding result (Protein S-C4BP complex) | Kd (human Protein S [1]) [nM] | koff (human Protein S [1]) [s⁻¹] | kon (human Protein S [1]) [M⁻¹ s⁻¹] | Kd [2] [nM] | koff [2] [s⁻¹] | kon [2] [M⁻¹ s⁻¹] | Kd (human Protein S [3]) [nM] | koff (human Protein S [3]) [s⁻¹] | kon (human Protein S [3]) [M⁻¹ s⁻¹]
1 | Antibody 41 (antibody, V domains shown, Same variable regions as Antibody 42) VH: QVQLVQSGSEVKKPGASVKVSCKASGYTFTNYYIHWVRQAPGQGLEWMGIITPSGGTTSYAQKFQGRVTMTRDTSTNTVYMGLSSLRSEDTAMYYCARAGVQLDRRGWFDPWGQGTLVTVSS VL: SYELTQPPSVSVSPGQTASITCSGDKLGDKYVFWYQQKPGQSPVLVIYQDSKRPSGIPERFSGSNSGNTATLTISGTQTMDEADYYCQAWDSSTVGFGGGTKLAVL | no binding (tested: 100 µg/ml C4BP (C4BP-Protein S complex)) | 13.8 | 0.0011 | 80000 | 19.5 | 0.00188 | 96400 |  |  | 
2 | Antibody 11 (antibody, V domains shown, Same variable regions as Antibody 23) VH: QVQLVQSGAEVKKPGASVKVSCKSSGHTFTGYYMHWVRQAPGQGLEWMGWINPNSGDTNYAQKFQGRVTMTRDTSISTAYMEMSRLRSDDTAVYYCARDSQILWFGELGYWGQGTLVTVSS VL: QAVVTQESALTTSPGETVTLTCRSSTGAVTASNYANWVQEKPDHLFTGLIGSTNNRAPGVPARFSGSLIGDKAALTITGAQTEDEAIYFCALWYSDHFVFGGGTKLTVL | no binding (tested: 100 µg/ml C4BP (C4BP-Protein S complex)) | 0.399 | 3.4e-05 | 85200 | < 0.001 | < 1e-07 | 82100 | 9.6 | 0.00113 | 116000
3 | Antibody 25 (antibody, V domains shown, Same variable regions as Antibody 31) VH: QVQLQESGPGLVKPSETLSLTCTVSGGSISGNYWSWIRQPPGKGLEWIGYIYYSGSTNYNPSLKSRVTISVDTSKNQFSLKLSSVTAADTAVYYCARDLDYFTWGAYSDWYFDLWGRGTLVTVSS VL: DIQMTQSPSSLSASVGDRVTITCRASQSISTFLNWYQQKPGKAPKLLIYATSSLRSGVPSRFSGSGSGTDFTLTISSLQPEDFAIYYCQQSYSTPRTFGQGTQVEIK | no binding (tested: 100 µg/ml C4BP (C4BP-Protein S complex)) | < 0.001 | < 1e-07 | 143000 | < 0.001 | < 1e-07 | 124000 |  |  | 
4 | Antibody 39 (antibody, V domains shown, Same variable regions as Antibody 40) VH: EVQLVESGGGLVQPGGSLRLSCAASGFTFSSYSMNWVRQAPGKGLEWVAYISSSTRTIFYADSVKGRFTISRDNAKNSLYLQMNSLRDEDTAFYYCARERSAFDYWGQGTLVTVSS VL: SYVLTQPPSVSVAPGQTARITCGGDNIGGKSVHWYQQKPGQAPVMVVYDDSDRPSGIPERFAGSNSGNTATLAISRVEAGDEADYYCQVWEITSDHPAFGGGTRLTVL | no binding (tested: 100 µg/ml C4BP (C4BP-Protein S complex)) | 0.25 | 5.84e-05 | 234000 | 0.419 | 8.02e-05 | 191000 |  |  | 
